We go through 1 molecule from publication PMC13507078, “The BRCT domain enhances DNA binding and catalytic efficiency of fungal PARPs”.

The target in this data set is T1, Af-PARP1 ΔBRCT (Aspergillus fumigatus, UniProt B0Y3N8 196-688).
T1 sequence: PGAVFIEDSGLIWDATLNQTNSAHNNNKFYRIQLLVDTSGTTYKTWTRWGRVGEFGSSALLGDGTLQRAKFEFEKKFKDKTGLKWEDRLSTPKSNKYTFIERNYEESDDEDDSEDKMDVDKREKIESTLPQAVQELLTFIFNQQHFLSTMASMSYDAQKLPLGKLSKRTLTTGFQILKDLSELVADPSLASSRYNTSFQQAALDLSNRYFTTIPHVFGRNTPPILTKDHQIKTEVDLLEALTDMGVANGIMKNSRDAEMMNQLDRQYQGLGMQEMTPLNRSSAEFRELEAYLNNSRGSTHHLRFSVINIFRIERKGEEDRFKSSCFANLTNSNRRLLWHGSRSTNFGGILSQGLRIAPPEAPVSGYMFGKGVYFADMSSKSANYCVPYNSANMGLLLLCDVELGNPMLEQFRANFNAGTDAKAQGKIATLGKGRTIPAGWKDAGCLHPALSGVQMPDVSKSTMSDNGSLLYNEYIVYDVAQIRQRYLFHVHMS
As to the kind of experiment: EMSA; similar apparent strength to WT in titration; EMSA: 50 mM HEPES pH 8, 100 mM NaCl, 10% glycerol, 10 mM DTT, 45 min at 4 °C, 7% native PAGE 0.5x TBE; plasmid EMSA: 20 mM Tris-HCl pH 8, 30 mM NaCl, 1 mM EDTA, 1 mM DTT; CD: 20 mM HEPES pH 8, 100 mM NaCl, 0.5 mM TCEP, 2% glycerol. Conditions: protein: recombinant; tags: N-terminal His (HRV3C-cleavable; removed for SAXS/CD); dumbbell of two hairpins, nick.

B1: DNA-1 (5'P nick) (structured_DNA)
DNA: CGGTCGATCGTAAGATCGACCGGCGCTGGAGCTTGCTCCAGCGC
modifications: 5'-phosphate
For the molecule B1, the binding result is “binds”.
